Measurements: PMC7939381, “MMP activation–associated aminopeptidase N reveals a bivalent 14-3-3 binding motif” (The Journal of Biological Chemistry, 2021)
One block for each substance: values may come before it.

How the values were obtained:
[1] = target: fluorescently labeled peptide 11, APN 36–73 pSer43 pThr63 (human) (UniProt P15144); assay: fluorescence polarisation; direct binding: dilution series of 14-3-3 protein added to FITC-labeled peptide (30 nM stock, 5 µl in 15 µl); 10 mM HEPES pH 7.4, 150 mM NaCl, 2 mM DTT, 0.01% Tween 20; 60 min at room temperature, read at 25 °C; four-parameter fit
fluorescently labeled peptide 11, APN 36–73 pSer43 pThr63 (human), sequence (P15144 36-73): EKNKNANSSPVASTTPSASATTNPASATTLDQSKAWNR

[2] = target: fluorescently labeled peptide 7, APN 36–73 pSer43 (human) (UniProt P15144); assay: as above
fluorescently labeled peptide 7, APN 36–73 pSer43 (human), sequence (P15144 36-73): as above

[3] = target: peptide 11, APN 36–73 pSer43 pThr63, as used in ITC and co-crystallisation (human) (UniProt P15144); assay: ITC; 14-3-3η (500 µM; 250 µM for peptide 11) titrated into peptide (50 µM; 12.5 µM for peptide 11), 18 injections; 50 mM HEPES pH 7.4, 250 mM NaCl, 20 mM MgCl2; 25 °C
peptide 11, APN 36–73 pSer43 pThr63, as used in ITC and co-crystallisation (human), sequence (P15144 36-73): as above

[4] = target: peptide 7, APN 36–73 pSer43, as used in ITC (human) (UniProt P15144); assay: as above
peptide 7, APN 36–73 pSer43, as used in ITC (human), sequence (P15144 36-73): as above

14-3-3β/α = 14-3-3β/α (UniProt P31946); assay: direct fluorescence polarisation titration; conditions: reference: peptide 7 (pS43 only)
14-3-3η = 14-3-3η (UniProt Q04917); assay: direct fluorescence polarisation titration; conditions: reference: peptide 7 (pS43 only)
14-3-3σ (stratifin, SFN) = 14-3-3σ (stratifin, SFN) (UniProt P31947); assay: direct fluorescence polarisation titration; conditions: reference: peptide 7 (pS43 only)

Kd [1]: 0.046 µM | Kd [2]: 24 µM | Kd [3]: 0.14 µM | stoichiometry N [3]: 0.58 | Kd [4]: 40.7 µM | stoichiometry N [4]: 1.13
Substance: 14-3-3η, full length, N-terminally His6-tagged (from UniProt Q04917 1-246) (natural protein)

binding against the reference (14-3-3β/α; sites S61): stronger | binding against the reference (14-3-3η; sites S61): stronger | binding against the reference (14-3-3σ (stratifin, SFN); sites S61): stronger
Substance: Aminopeptidase N (APN, CD13) 36-73 (from UniProt P15144) peptide 10 (pS43 pS61)

binding against the reference (14-3-3β/α; sites T63): stronger | binding against the reference (14-3-3σ (stratifin, SFN); sites T63): stronger
Substance: Aminopeptidase N (APN, CD13) 36-73 (from UniProt P15144) peptide 11 (pS43 pT63)

binding against the reference (14-3-3β/α; sites T64): stronger | binding against the reference (14-3-3η; sites T64): stronger | binding against the reference (14-3-3σ (stratifin, SFN); sites T64): stronger
Substance: Aminopeptidase N (APN, CD13) 36-73 (from UniProt P15144) peptide 12 (pS43 pT64)
